Source: patent US20050069541A1, “Composition for and treatment of demyelinating diseases and paralysis by administration of remyelinating agents” (priority 2003, published 2005)
One block for each molecule: values may come before it.

How the values were obtained:
[1] = molecular target: Mac-1 (human) (human) (UniProt P11215)
[2] = molecular target: monocyte/T cell surface antigen (rat) (rat)
[3] = molecular target: β1 integrin (human) (human) (UniProt P05556)
[4] = molecular target: β1 integrin (human) (human) (UniProt P05556); remark: listed apart in the source
[5] = molecular target: α4 integrin (human) (human) (UniProt P13612)
[6] = molecular target: L-selectin (mouse) (mouse) (UniProt P18337)
[7] = molecular target: Thy 1.1 (rat) (rat) (UniProt P01830)
[8] = molecular target: CD2 (rat) (rat) (UniProt P08921)
[9] = molecular target: α4 integrin (mouse) (mouse) (UniProt Q00651)
[10] = molecular target: CD45 (rat) (rat) (UniProt P04157)
[11] = molecular target: α6 integrin (human) (human) (UniProt P23229)
[12] = molecular target: β2 integrin (human) (human) (UniProt P05107)
[13] = molecular target: LFA-1 (rat) (rat)
[14] = molecular target: CD4 (rat) (rat) (UniProt P05540)
[15] = molecular target: α4 integrin (Homo sapiens, UniProt P05556+P13612); assay: Inhibition of cell adhesion to VCAM; type: cell-based, human and guinea pig; settings: 100% serum; read-out: IC50 for inhibition of cell adhesion to high density VCAM-1 in the presence of 100% serum
[16] = test system: EAE in female Hartley guinea pigs; settings: listed as N-[N-(3-pyridinesulfonyl)-L-3,3-dimethyl-4-thiaprolyl]-O-[1-methylpiperzain-4-yl
[17] = test system: infiltrating cells in spinal cord; assay: Chronic EAE: mean cell counts in spinal cord (H-E sections, 0.12 mm^2 fields); type: in vivo, guinea pig; settings: listed as N-[N-(3-pyridinesulfonyl)-L-3,3-dimethyl-4-thiaprolyl]-O-[1-methylpiperzain-4-yl
Protocol: To quantify the abnormalities observed in the spinal cord, sections stained with H-E were divided into 12 representative pie-shaped areas. In each area, the number of cells within a 0.12 mm^2 field of view was counted using Sigma Scan Pro image analysis software (SPSS Inc.), and the combined mean number of cells in all 12 areas was calculated for the whole spinal cord (36 fields of view per animal). Note that as all cell nuclei were counted, the number of cells may include neurons and glial cells in addition to infiltrates.

[18] = test system: brain and spinal cord of EAE guinea pigs; assay: Chronic EAE: histology and blinded pathological scoring of brain and spinal cord sections (H-E, SCR); type: in vivo, guinea pig; settings: versus saline; listed as N-[N-(3-pyridinesulfonyl)-L-3,3-dimethyl-4-thiaprolyl]-O-[1-methylpiperzain-4-yl
Protocol: Animal Sacrifice and Histological Analysis. Untreated, chronic EAE animals (n=5) were sacrificed on day 40, as well as non-EAE controls (n=5). Following each 10-day treatment interval, 5 animals from each group were sacrificed (0.25 mL sodium pentobarbital), blood samples were collected for FACS analysis (see below), and the brain and spinal cord dissected and sectioned. Three spinal sections were used, corresponding to lumbar, thoracic and cervical regions of the cord. The brain was cut into five transverse sections. The first three proximal sections were combined in one block, and the last two distal sections in another. Tissues were fixed in 10% formalin and embedded in paraffin. […] sections were stained with hematoxylin-eosin (H-E) or solochrome-R-cyanlin (SCR) and evaluated by a blinded observer in each of four categories: (1) meningeal inflammation, (2) perivascular infiltration, (3) encephalitis or (4) myelitis and demyelination (Table 6). The combined pathological score represents the total score (out of a potential 20) from all 5 CNS sections in each animal.

[19] = test system: IL-2, IL-10, MCP-1 RNA; assay: Chronic EAE: quantitative RT-PCR of spinal cord; type: in vivo, guinea pig; settings: 10 days after withdrawal; listed as N-[N-(3-pyridinesulfonyl)-L-3,3-dimethyl-4-thiaprolyl]-O-[1-methylpiperzain-4-yl
Protocol: Quantitative Reverse Transcription-PCR: IL-2, IL-10, MCP-1. RNA was isolated from 30 mg of frozen guinea pig spinal cord using the S.N.A.P.™ (simple nucleic acid preparation) total RNA Isolation Kit (Invitrogen) according to manufacturer's instructions, modified to include a second DNAse treatment step followed by an additional purification over the S.N.A.P. column.
Primer/probe sequences and concentrations for IL-2, IL-10, and MCP-1 are given in Table 7, as well as the standard RNA used for each gene. RT-PCR was carried out in triplicate using the ABI PRISM® 7700 Sequence Detection System. 50 μl reactions contained 10 to 800 ng of total RNA and primers and probes at the concentrations indicated above in reaction buffer consisting of 6.67% glycerol (Amresco); 5.5 mM MgCl; 300 μM DATP, dCTP, dGTP, and dUTP; 100 nM probe; 1.25 unit of AmpliTaq Gold® DNA Polymerase (Applied Biosystems); 1× TaqMan® Buffer A (TaqMan® PCR Core reagents kit, Applied Biosystems), 20 units of RNase Inhibitor (Roche); 1.25 unit of murine leukemia virus (MuLV) Reverse Transcriptase (Applied Biosystems). Reverse-transcription of RNA was carried out at 48° C. for 30 min., followed by a 10 min. denaturing step at 95° C. PCR was carried out by 40 thermo-cycles consisting of 95° C. for 15 seconds followed by 60° C. for 1 minute. Each plate included a standard curve using the standard RNA listed in Table 7 and two additional control samples: 1) a positive control RNA sample used on all plates, 2) a non-template control (NTC).
The correlation coefficients of the standard curves were greater than 0.990 for all data shown. The coefficients of variation for sample triplicates were less than 0.2. Since the RNA used for the standard curve is a heterogeneous mix of RNA containing a constant but unknown amount of the target message, the numbers calculated are relative.

[20] = test system: spinal cord lesions of paralyzed EAE guinea pigs; assay: Example 2: spontaneous remyelination in chronic EAE (SCR, toluidine blue, EM, lesion area analysis, motor function); type: in vivo, guinea pig
[21] = molecular target: α4 integrin (human) (human) (UniProt P13612); remark: listed apart in the source
[22] = molecular target: α4 integrin (human) (human) (UniProt P13612); remark: listed apart in the source
[23] = molecular target: α4 integrin (rat) (rat)
[24] = molecular target: α4 integrin (human) (human) (UniProt P13612); remark: listed apart in the source
[25] = molecular target: α4 integrin (human) (human) (UniProt P13612); remark: listed apart in the source
[26] = molecular target: T1, VLA-4 (Homo sapiens, UniProt P05556+P13612); settings: cited from earlier work
T1 construct: endogenous in cells; host or cells: Jurkat cells

[27] = molecular target: α4 integrin (human) (human) (UniProt P13612); remark: listed apart in the source
[28] = test system: human lymphocytes; settings: cited from earlier work

Relative Binding to EAE Vessels (% of control) [1]: 107 % of control
Molecule: LM2/1 (antibody)

Relative Binding to EAE Vessels (% of Control), rat lymphocytes [2]: 102 % of Control
Molecule: OX-44 (antibody)

Relative Binding to EAE Vessels (% of Control), human lymphocytes [3]: 7 % of Control
Relative Binding to EAE Vessels (% of control) [4]: 8 % of control
Molecule: AIIB2 (antibody)

Relative Binding to EAE Vessels (% of control) [5]: 338 % of control
Molecule: HP1/7 (antibody)

Relative Binding to EAE Vessels (% of Control), mouse lymphocytes [6]: 92 % of Control
Molecule: MEL-14 (antibody)

Relative Binding to EAE Vessels (% of Control), rat lymphocytes [7]: 87 % of Control
Molecule: OX-7 (antibody)

Relative Binding to EAE Vessels (% of Control), rat lymphocytes [8]: 100 % of Control
Molecule: OX-34 (antibody)

Relative Binding to EAE Vessels (% of Control), mouse lymphocytes [9]: 43 % of Control
Molecule: R1-2 (antibody)

Relative Binding to EAE Vessels (% of control) [5]: 151 % of control
Molecule: P4G9 (antibody)

Relative Binding to EAE Vessels (% of Control), rat lymphocytes [10]: 90 % of Control
Molecule: OX-1 (antibody)

melting point: 158 to 160 °C
Molecule: Cc1ccc(S(=O)(=O)N2CCC[C@H]2C(=O)N[C@@H](Cc2ccc(OC(=O)N3CCN(CCO)CC3)cc2)C(=O)OC(C)(C)C)cc1

Relative Binding to EAE Vessels (% of control) [11]: 88 % of control
Molecule: GoH3 (antibody)

Relative Binding to EAE Vessels (% of control) [12]: 98 % of control
Molecule: TS1/18 (antibody)

Relative Binding to EAE Vessels (% of Control), rat lymphocytes [13]: 87 % of Control
Molecule: OX-52 (antibody)

Relative Binding to EAE Vessels (% of Control), rat lymphocytes [14]: 107 % of Control
Molecule: OX-35 (antibody)

Molecule: CC(C)OC(=O)[C@H](Cc1ccc(OC(=O)N2CCN(C)CC2)cc1)NC(=O)[C@H]1N(S(=O)(=O)c2cccnc2)CSC1(C)C [Example 381, N-[N-(3-pyridinesulfonyl)-L-3,3-dimethyl-4-thiaprolyl]-O-[1-methylpiperazin-4-ylcarbonyl]-L-tyrosine isopropyl ester]
IC50 [15]: 1 to 10 nM
mean clinical score day 70-80 after withdrawal (30 days treatment, 10 days off) versus continuous treatment ([16]; n=5, p<0.05 Mann Whitney): significantly higher
escape from treatment ([16]; up to 40 days of treatment): no escape from treatment
adverse side effects during prolonged administration ([16]; up to 40 days, 30 mg/kg 2x/day s.c., guinea pig, 30 mg/kg): no adverse side effects
cell number in spinal cord versus saline-treated animals ([17]; after 10, 20, 30 or 40 days, p<0.001 two-way ANOVA): fewer cells
mean cell count after removal of compound for 10 days versus continuous treatment ([17]; p<0.05): significantly increased
spinal cord histology after 20 days of treatment (day 60) [18]: much smaller area of demyelination
spinal cord histology after 40 days of treatment (day 80) [18]: almost no meningeal and perivascular inflammation
cytokine RNA after withdrawal of compound [19]: rose to levels comparable to those in saline-treated animals
SCR-stained spinal cord lesions after 20 days of treatment ([20]; 20 days, listed as N-[N-(3-pyridinesulfonyl)-L-3,3-dimethyl-4-thiaprolyl]-O-[1-methylpiperzain-4-yl): lesions with a diffuse blue stain covering the plaque
SCR-stained spinal cord lesions after 40 days of treatment ([20]; 40 days, listed as N-[N-(3-pyridinesulfonyl)-L-3,3-dimethyl-4-thiaprolyl]-O-[1-methylpiperzain-4-yl): majority of lesions showed clear myelin pallor
percentage of remyelination (mean percent of lesion area with myelin pallor) ([20]; after 20, 30 or 40 days of therapy): 50%
semithin and EM sections of lesions ([20]; day 30 of treatment, listed as N-[N-(3-pyridinesulfonyl)-L-3,3-dimethyl-4-thiaprolyl]-O-[1-methylpiperzain-4-yl): multiple layers of thin myelin wrappings around large diameter axons indicative of remyelination
incidence of remyelination (lesions with myelin pallor) versus saline ([20]; time-dependent): increased the incidence of remyelination

Jurkat binding to FN-coated plate (% inhibition) [21]: 47 % inhibition
% Input Binding Jurkat to TNFα-stimulated rat brain EC clone [22]: 6 % input
Relative Binding to EAE Vessels (% of Control), rat lymphocytes [23]: 18 % of Control
Relative Binding to EAE Vessels (% of Control), human lymphocytes [24]: 0 % of Control
% Input Binding Ramos to VCAM-1 transfected L cells [25]: 0 % input
Relative Binding to EAE Vessels (% of control) [5]: 3 % of control
Molecule: HP2/1 (antibody)

Jurkat binding to FN-coated plate (% inhibition) [21]: 45 % inhibition
% Input Binding Jurkat to TNFα-stimulated rat brain EC clone [22]: 8 % input
Binding of U937 cells to inflamed vessels in sections of EAE brain [27]: 0
% Input Binding Ramos to VCAM-1 transfected L cells [25]: 1 % input
B1: TY21.6 (antibody, V domains shown)
VH: EVQLQQSGAELVKPGASVKLSCTASGFNIKDTYIHCVKQRPEQGLEWIGRIDPANGYTKYDPKFQGKATITADTSSNTAYLQLSSLTSEDTAVYFCAREGYYGNYGVYAMDYWGQGTSVTVSS
VL: DIQMTQSPSSLSASLGGKVTITCKTSQDINKYMAWYQHKPGKRPRLLIHYTSALQPGIPSRFSGSGSGRDYSFNISNLEPEDIATYYCLQYDNLWTFGGGTKLEIK
binding affinity for VLA-4 [26]: about 10^9 M^−1
human lymphocyte binding to TNF-stimulated rat brain cell cultures [28]: inhibit human lymphocyte binding
